Positions count from the first letter of the chain named. Each block holds one binder with its values, some of them ahead of it.
Assays:
[1] = target: T1, Recombinant Human TNF-α/TNFSF1A (human, UniProt P01375 77-233); experiment: cell-based or functional assay
[2] = target: T1, Recombinant Human TNF-α/TNFSF1A; experiment: SPR (Biacore), antibody captured, TNF-α in solution
Method: The BIACORE assay (Biacore, Inc. Piscataway, N.J.) determines the affinity of antibodies with kinetic measurements of on-rate and off-rate constants. Binding of antibodies to a target antigen (for example, a purified recombinant target antigen) is determined by surface plasmon resonance-based measurements with a Biacore® 1000 or 3000 instrument (Biacore® AB, Uppsala, Sweden) using running HBS-EP (10 mM HEPES [pH 7.4], 150 mM NaCl, 3 mM EDTA, and 0.005% surfactant P20) at 25° C. All chemicals are obtained from Biacore® AB (Uppsala, Sweden) or otherwise from a different source as described in the text. For example, approximately 5000 RU of goat anti-mouse IgG, (Fcγ), fragment specific polyclonal antibody (Pierce Biotechnology Inc, Rockford, Ill., US) diluted in 10 mM sodium acetate (pH 4.5) is directly immobilized across a CM5 research grade biosensor chip using a standard amine coupling kit according to manufacturer's instructions and procedures at 25 μg/ml. Unreacted moieties on the biosensor surface are blocked with ethanolamine. Modified carboxymethyl dextran surface in flowcell 2 and 4 is used as a reaction surface. Unmodified carboxymethyl dextran without goat anti-mouse IgG in flow cell 1 and 3 is used as the reference surface. For kinetic analysis, rate equations derived from the 1:1 Langmuir binding model are fitted simultaneously to association and dissociation phases of all eight injections (using global fit analysis) with the use of Biaevaluation 4.0.1 software. Purified antibodies are diluted in HEPES-buffered saline for capture across goat anti-mouse IgG specific reaction surfaces. Antibodies to be captured as a ligand (25 μg/ml) are injected over reaction matrices at a flow rate of 5 μl/minute. The association and dissociation rate constants, kₒₙ (M⁻¹s⁻¹) and koff (s⁻¹), are determined under a continuous flow rate of 25 μl/minute. Rate constants are derived by making kinetic binding measurements at different antigen concentrations ranging from 10-200 nM. The equilibrium dissociation constant (M) of the reaction between antibodies and the target antigen is then calculated from the kinetic rate constants by the following formula: KD=koff/kₒₙ. Binding is recorded as a function of time and kinetic rate constants are calculated. In this assay, on-rates as fast as 10⁶ M⁻¹s⁻¹ and off-rates as slow as 10⁻⁶ s⁻¹ can be measured.

T1 sequence (P01375 77-233 limits assumed): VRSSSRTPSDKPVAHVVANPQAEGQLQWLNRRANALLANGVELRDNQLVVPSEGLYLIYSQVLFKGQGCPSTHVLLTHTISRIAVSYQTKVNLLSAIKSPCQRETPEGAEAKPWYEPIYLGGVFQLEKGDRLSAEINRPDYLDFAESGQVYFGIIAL

TNF-α neutralization assay IC50 (nM), L929 cells [1]: 0.799 nM
Kd [2]: 120 pM
koff [2]: 0.000287 s⁻¹
kon [2]: 2.4e+06 M⁻¹ s⁻¹
B2: AB254 (antibody, V domains shown)
VH: EVQLVESGGGLVQPGGSLRLSCAASGFTFSDYGVNWVRQAPGKGLEWVSMIWGDGSTDYDSTLKSRFTISRDNSKNTLYLQMNSLRAEDTAVYYCAREWHHGPVAYWGQGTLVTVSS
VL: EIVMTQSPATLSLSPGERATLSCKASQAVSSAVAWYQQKPGQAPRLLIYWASTRHTGIPARFSGSGSGTDFTLTISSLQPEDFAVYYCQQHYSTPFTFGQGTKLEIK
notes: also called hMAK195VH.2 / hMAK195VL.2

TNF-α neutralization assay IC50 (nM), L929 cells [1]: 0.193 nM
Kd [2]: 169 pM
koff [2]: 0.000273 s⁻¹
kon [2]: 1.61e+06 M⁻¹ s⁻¹
B3: AB263 (antibody, V domains shown)
VH: B2 VH with F29L, R71K
VL: B2 VL with A43S, I58V
notes: also called hMAK195VH.2b / hMAK195VL.2a

TNF-α neutralization assay IC50 (nM), L929 cells [1]: 0.078 nM
Kd [2]: 81.6 pM
koff [2]: 0.000244 s⁻¹
kon [2]: 3.04e+06 M⁻¹ s⁻¹
B4: AB258 (antibody, V domains shown)
VH: B2 VH with A24V, F29L, V48L, S49G, F67L, R71K, N76S, L78I
VL: B2 VL
notes: also called hMAK195VH.2a / hMAK195VL.2

TNF-α neutralization assay IC50 (nM), L929 cells [1]: 0.477 nM
Kd [2]: 148 pM
koff [2]: 0.000384 s⁻¹
kon [2]: 2.62e+06 M⁻¹ s⁻¹
B5: AB255 (antibody, V domains shown)
VH: B2 VH
VL: B2 VL with A43S, I58V
notes: also called hMAK195VH.2 / hMAK195VL.2a

TNF-α neutralization assay IC50 (nM), L929 cells [1]: 0.071 nM
Kd [2]: 67.7 pM
koff [2]: 0.000203 s⁻¹
kon [2]: 3e+06 M⁻¹ s⁻¹
B6: AB259 (antibody, V domains shown)
VH: B2 VH with A24V, F29L, V48L, S49G, F67L, R71K, N76S, L78I
VL: B2 VL with A43S, I58V
notes: also called hMAK195VH.2a / hMAK195VL.2a

TNF-α neutralization assay IC50 (nM), L929 cells [1]: 0.279 nM
Kd [2]: 73.3 pM
koff [2]: 0.000221 s⁻¹
kon [2]: 3.02e+06 M⁻¹ s⁻¹
B12: AB253 (antibody, V domains shown)
VH: B2 VH
VL: DIQMTQSPSSLSASVGDRVTITCKASQAVSSAVAWYQQKPGKSPKLLIYWASTRHTGVPSRFSGSGSGTDFTLTISSLQPEDFATYYCQQHYSTPFTFGQGTKLEIK
notes: also called hMAK195VH.2 / hMAK195VL.1a

TNF-α neutralization assay IC50 (nM), L929 cells [1]: 0.058 nM
Kd [2]: 50.5 pM
koff [2]: 0.000177 s⁻¹
kon [2]: 3.54e+06 M⁻¹ s⁻¹
B14: AB256 (antibody, V domains shown)
VH: B2 VH with A24V, F29L, V48L, S49G, F67L, R71K, N76S, L78I
VL: B12 VL with S43A
notes: also called hMAK195VH.2a / hMAK195VL.1

TNF-α neutralization assay IC50 (nM), L929 cells [1]: 0.077 nM
Kd [2]: 62 pM
koff [2]: 0.000217 s⁻¹
kon [2]: 3.56e+06 M⁻¹ s⁻¹
B16: AB257 (antibody, V domains shown)
VH: B2 VH with A24V, F29L, V48L, S49G, F67L, R71K, N76S, L78I
VL: B12 VL
notes: also called hMAK195VH.2a / hMAK195VL.1a

TNF-α neutralization assay IC50 (nM), L929 cells [1]: 0.187 nM
Kd [2]: 122 pM
koff [2]: 0.000285 s⁻¹
kon [2]: 2.36e+06 M⁻¹ s⁻¹
B22: AB261 (antibody, V domains shown)
VH: B2 VH with F29L, R71K
VL: B12 VL
notes: also called hMAK195VH.2b / hMAK195VL.1a

The remaining lines, values behind:

B1: AB262 (antibody, V domains shown)
VH: B2 VH with F29L, R71K
VL: B2 VL
notes: also called hMAK195VH.2b / hMAK195VL.2
TNF-α neutralization assay IC50 (nM), L929 cells [1]: 0.218 nM
Kd [2]: 136 pM
koff [2]: 0.00029 s⁻¹
kon [2]: 2.14e+06 M⁻¹ s⁻¹

B7: AB248 (antibody, V domains shown)
VH: EVQLQESGPGLVKPSETLSLTCTVSGFSLSDYGVNWIRQPPGKGLEWIGMIWGDGSTDYDSTLKSRVTISKDTSKNQFSLKLSSVTAADTAVYYCAREWHHGPVAYWGQGTLVTVSS
VL: B12 VL with S43A
notes: also called hMAK195VH.1b / hMAK195VL.1
TNF-α neutralization assay IC50 (nM), L929 cells [1]: 0.213 nM
Kd [2]: 174 pM
koff [2]: 0.000316 s⁻¹
kon [2]: 1.82e+06 M⁻¹ s⁻¹

B8: AB260 (antibody, V domains shown)
VH: B2 VH with F29L, R71K
VL: B12 VL with S43A
notes: also called hMAK195VH.2b / hMAK195VL.1
TNF-α neutralization assay IC50 (nM), L929 cells [1]: 0.093 nM
Kd [2]: 101 pM
koff [2]: 0.00023 s⁻¹
kon [2]: 2.27e+06 M⁻¹ s⁻¹

B9: AB250 (antibody, V domains shown)
VH: B7 VH
VL: B2 VL
notes: also called hMAK195VH.1b / hMAK195VL.2
TNF-α neutralization assay IC50 (nM), L929 cells [1]: 0.301 nM
Kd [2]: 179 pM
koff [2]: 0.000356 s⁻¹
kon [2]: 2e+06 M⁻¹ s⁻¹

B10: AB245 (antibody, V domains shown)
VH: B7 VH with I37V, I48L, V67L, T73N, N76S, F78I
VL: B12 VL
notes: also called hMAK195VH.1a / hMAK195VL.1a
TNF-α neutralization assay IC50 (nM), L929 cells [1]: 0.072 nM
Kd [2]: 99.4 pM
koff [2]: 0.00033 s⁻¹
kon [2]: 3.32e+06 M⁻¹ s⁻¹

B11: AB242 (antibody, V domains shown)
VH: B7 VH with F27G, L29I, K71V
VL: B2 VL
notes: also called hMAK195VH.1 / hMAK195VL.2
TNF-α neutralization assay IC50 (nM), L929 cells [1]: 25.1 nM
Kd [2]: 796 pM
koff [2]: 0.00142 s⁻¹
kon [2]: 1.79e+06 M⁻¹ s⁻¹

B13: AB249 (antibody, V domains shown)
VH: B7 VH
VL: B12 VL
notes: also called A3249; hMAK195VH.1b / hMAK195VL.1a
TNF-α neutralization assay IC50 (nM), L929 cells [1]: 0.245 nM
Kd [2]: 156 pM
koff [2]: 0.000315 s⁻¹
kon [2]: 2.04e+06 M⁻¹ s⁻¹

B15: AB243 (antibody, V domains shown)
VH: B7 VH with F27G, L29I, K71V
VL: B2 VL with A43S, I58V
notes: also called hMAK195VH.1 / hMAK195VL.2a
TNF-α neutralization assay IC50 (nM), L929 cells [1]: 50.7 nM
Kd [2]: 1620 pM
koff [2]: 0.0027 s⁻¹
kon [2]: 1.72e+06 M⁻¹ s⁻¹

B17: AB240 (antibody, V domains shown)
VH: B7 VH with F27G, L29I, K71V
VL: B12 VL with S43A
notes: also called hMAK195VH.1 / hMAK195VL.1
TNF-α neutralization assay IC50 (nM), L929 cells [1]: 14.2 nM
Kd [2]: 1400 pM
koff [2]: 0.00228 s⁻¹
kon [2]: 1.64e+06 M⁻¹ s⁻¹

B18: AB241 (antibody, V domains shown)
VH: B7 VH with F27G, L29I, K71V
VL: B12 VL
notes: also called hMAK195VH.1 / hMAK195VL.1a
TNF-α neutralization assay IC50 (nM), L929 cells [1]: 5.33 nM
Kd [2]: 573 pM
koff [2]: 0.0013 s⁻¹
kon [2]: 2.27e+06 M⁻¹ s⁻¹

B19: AB244 (antibody, V domains shown)
VH: B7 VH with I37V, I48L, V67L, T73N, N76S, F78I
VL: B12 VL with S43A
notes: also called hMAK195VH.1a / hMAK195VL.1
TNF-α neutralization assay IC50 (nM), L929 cells [1]: 0.155 nM
Kd [2]: 89.1 pM
koff [2]: 0.000335 s⁻¹
kon [2]: 3.8e+06 M⁻¹ s⁻¹

B20: AB251 (antibody, V domains shown)
VH: B7 VH
VL: B2 VL with A43S, I58V
notes: also called hMAK195VH.1b / hMAK195VL.2a
TNF-α neutralization assay IC50 (nM), L929 cells [1]: 0.35 nM
Kd [2]: 250 pM
koff [2]: 0.000425 s⁻¹
kon [2]: 1.71e+06 M⁻¹ s⁻¹

B21: AB252 (antibody, V domains shown)
VH: B2 VH
VL: B12 VL with S43A
notes: also called hMAK195VH.2 / hMAK195VL.1
TNF-α neutralization assay IC50 (nM), L929 cells [1]: 0.222 nM
Kd [2]: 86.6 pM
koff [2]: 0.000252 s⁻¹
kon [2]: 2.92e+06 M⁻¹ s⁻¹

B23: AB246 (antibody, V domains shown)
VH: B7 VH with I37V, I48L, V67L, T73N, N76S, F78I
VL: B2 VL
notes: also called hMAK195VH.1a / hMAK195VL.2
TNF-α neutralization assay IC50 (nM), L929 cells [1]: 0.099 nM
Kd [2]: 45.8 pM
koff [2]: 0.000119 s⁻¹
kon [2]: 2.61e+06 M⁻¹ s⁻¹

B24: AB247 (antibody, V domains shown)
VH: B7 VH with I37V, I48L, V67L, T73N, N76S, F78I
VL: B2 VL with A43S, I58V
notes: also called hMAK195VH.1a / hMAK195VL.2a
TNF-α neutralization assay IC50 (nM), L929 cells [1]: 0.186 nM
Kd [2]: 99.6 pM
koff [2]: 0.00026 s⁻¹
kon [2]: 2.62e+06 M⁻¹ s⁻¹
